# Source: patent US20240218063A1 (HARPOON THERAPEUTICS, published 2024)
# T1: human DLL3 on DLL3 expressing cancer cell lines (human, UniProt Q9NYJ7 27-618)
# T1 sequence: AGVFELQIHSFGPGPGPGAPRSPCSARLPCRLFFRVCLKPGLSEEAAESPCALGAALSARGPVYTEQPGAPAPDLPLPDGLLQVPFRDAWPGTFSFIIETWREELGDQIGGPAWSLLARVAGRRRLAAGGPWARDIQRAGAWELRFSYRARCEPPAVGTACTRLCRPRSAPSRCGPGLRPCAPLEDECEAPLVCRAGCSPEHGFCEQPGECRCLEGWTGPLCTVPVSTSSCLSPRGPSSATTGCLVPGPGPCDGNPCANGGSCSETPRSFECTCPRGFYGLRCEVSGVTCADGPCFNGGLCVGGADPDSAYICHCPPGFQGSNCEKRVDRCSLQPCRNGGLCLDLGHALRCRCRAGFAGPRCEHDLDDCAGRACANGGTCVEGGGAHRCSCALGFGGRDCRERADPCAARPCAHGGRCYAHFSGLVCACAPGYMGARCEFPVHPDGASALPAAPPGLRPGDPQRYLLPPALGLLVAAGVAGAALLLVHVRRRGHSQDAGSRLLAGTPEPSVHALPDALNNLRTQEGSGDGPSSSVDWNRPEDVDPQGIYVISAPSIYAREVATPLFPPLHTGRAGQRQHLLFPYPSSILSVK
# Target: T1, human DLL3 on DLL3 expressing cancer …
# Experiment: cell-based or functional assay
row,Binder,fold increase in TDCC potency compared to the parental DLL3 binder DH6 [fold]
1,"anti-DLL3 trispecific protein 4H011 (other, not shown: small tags and cut ends) EVQLVESGGGLVQPGGSLTLSCAASGSSVSRLSMAWYRQAPGKKRELVAGISVDGSTDYIDSVKGRFTISRDNAKNSVYLQMNSLRAEDTAVYYCYAYRWTTRLTYWGQGTLVTVSS",> 8

# Target: T1, human DLL3 on DLL3 expressing cancer …
# Experiment: cell-based or functional assay
# Remark: another data set of the same source
row,Binder,"TDCC EC50, CHO expressed purified protein [nM]"
1,"anti-DLL3 trispecific protein 1A011 (other, not shown: small tags and cut ends) EVQLVESGGGLVQPGGSLTLSCVASGSTSSINAIGWYRRAPGKQRELVAGISSDGSKVYIDSVKGRFTISRDNAKNSVYLQMNSLRAEDTAVYYCYYFRTVSGSSYRYWGQGTLVTVSS",0.17
2,"anti-DLL3 trispecific protein 1H012 (other, not shown: small tags and cut ends) EVQLVESGGGLVQPGGSLTLSCVASGSTSSINAMGWYRRAPGKQRELVAGISSDGSKVYVDSVKGRFTISRDNAKNSVYLQMNSLRAEDTAVYYCYYFRTVSGSSMPYWGQGTLVTVSS",0.063
3,"anti-DLL3 trispecific protein 2E05 (other, not shown: small tags and cut ends) EVQLVESGGGLVQPGGSLTLSCVASGSPSSINAYGWYRRAPGKQRELVAGISSDGSKVYSDSVKGRFTISRDNAKNSVYLQMNSLRAEDTAVYYCYYFRTVSGSSMSYWGQGTLVTVSS",0.072
4,"anti-DLL3 trispecific protein 2H02 (other, not shown: small tags and cut ends) EVQLVESGGGLVQPGGSLTLSCVASGSTSSINAMAWYRRAPGKQRELAAGISSDGSKVYADSVKGRFTISRDNAKNSVYLQMNSLRAEDTAVYYCYYFHTVSGSSMRYWGQGTLVTVSS",0.096
5,"anti-DLL3 trispecific protein 2E02 (other, not shown: small tags and cut ends) EVQLVESGGGLVQPGGSLTLSCVASGSTSAINAMGWYRRAPGKQRELVAGISSDGSKVYVDSVKGRFTISRDNAKNSVYLQMNSLRAEDTAVYYCYYFRTVSGSSQRYWGQGTLVTVSS",0.12
6,"anti-DLL3 trispecific protein 2C04 (other, not shown: small tags and cut ends) EVQLVESGGGLVQPGGSLTLSCVASGSTSSRNAMGWYRRAPGKQRELVAGISSDGSKLYADSVKGRFTISRDNAKNSVYLQMNSLRAEDTAVYYCYYFRTVLGSSMRYWGQGTLVTVSS",0.043
7,"anti-DLL3 trispecific protein 4D09 (other, not shown: small tags and cut ends) EVQLVESGGGLVQPGGSLTLSCAASGSSVKFLSMAWYRQAPGKKRELVAGISADGSTDYILSVKGRFTISRDNAKNSVYLQMNSLRAEDTAVYYCYAYEWTTRYTYWGQGTLVTVSS",0.06
8,"anti-DLL3 trispecific protein 4D011 (other, not shown: small tags and cut ends) EVQLVESGGGLVQPGGSLTLSCAASGSSVRFLSMAWYRQAPGKKRELVAGISVDGSTDYIDSVKGRFTISRDNAKNSVYLQMNSLRAEDTAVYYCYAYRWRTRYTYWGQGTLVTVSS",0.098
